Data set [1] deals with CvkR (Cas V-K repressor, Alr3614) of Anabaena (Nostoc) sp. PCC 7120 (Anabaena (Nostoc) sp. PCC 7120). The data set is described as follows: SEC. For orientation: In gel filtration, larger molecules generally elute earlier.
Data set [2] concerns the target CvkR (Alr3614) (Anabaena (Nostoc) sp. PCC 7120, UniProt A0ACD6B984 19-168). Kind of data set: EMSA.

As for “CvkR (Cas V-K repressor, Alr3614) of Anabaena (Nostoc) sp. PCC 7120 (natural protein)”, in data set [1], the stoichiometry N (as a rule, a count of units in the complex or per binding partner) was 2.

B1: Pcas12k (P82) (dsDNA)
DNA 1: AAGAAACATCCTATAGAAGCATCTTCTAAAACACATTAGTGCTTTGTATAACATTATGTGTTTTGTATGGTATTTTATTTTT
DNA 2: AAAAATAAAATACCATACAAAACACATAATGTTATACAAAGCACTAATGTGTTTTAGAAGATGCTTCTATAGGATGTTTCTT
For B1, the binding result in data set [2] is recorded as “binds”.

Source of the values: article doi:10.1101/2022.05.13.491168.
